Data reported in paper PMC10746786 (2023).

B1: FLAG-tagged EIF4G2 WT [human] / HADHB [human (endogenous in HEK293T)] (parent complex)
chain 1: MESAIAEGGASRFSASSGGGGSRGAPQHYPKTAGNSEFLGKTPGQNAQKWIPARSTRRDDNSAANNSANEKERHDAIFRKVRGILNKLTPEKFDKLCLELLNVGVESKLILKGVILLIVDKALEEPKYSSLYAQLCLRLAEDAPNFDGPAAEGQPGQKQSTTFRRLLISKLQDEFENRTRNVDVYDKRENPLLPEEEEQRAIAKIKMLGNIKFIGELGKLDLIHESILHKCIKTLLEKKKRVQLKDMGEDLECLCQIMRTVGPRLDHERAKSLMDQYFARMCSLMLSKELPARIRFLLQDTVELREHHWVPRKAFLDNGPKTINQIRQDAVKDLGVFIPAPMAQGMRSDFFLEGPFMPPRMKMDRDPLGGLADMFGQMPGSGIGTGPGVIQDRFSPTMGRHRSNQLFNGHGGHIMPPTQSQFGEMGGKFMKSQGLSQLYHNQSQGLLSQLQGQSKDMPPRFSKKGQLNADEISLRPAQSFLMNKNQVPKLQPQITMIPPSAQPPRTQTPPLGQTPQLGLKTNPPLIQEKPAKTSKKPPPSKEELLKLTETVVTEYLNSGNANEAVNGVREMRAPKHFLPEMLSKVIILSLDRSDEDKEKASSLISLLKQEGIATSDNFMQAFLNVLDQCPKLEVDIPLVKSYLAQFAARAIISELVSISELAQPLESGTHFPLFLLCLQQLAKLQDREWLTELFQQSKVNMQKMLPEIDQNKDRMLEILEGKGLSFLFPLLKLEKELLKQIKLDPSPQTIYKWIKDNISPKLHVDKGFVNILMTSFLQYISSEVNPPSDETDSSSAPSKEQLEQEKQLLLSFKPVMQKFLHDHVDLQVSALYALQVHCYNSNFPKGMLLRFFVHFYDMEIIEEEAFLAWKEDITQEFPGKGKALFQVNQWLTWLETAEEEESEEEAD
chain 2: AAPAVQTKTKKTLAKPNIRNVVVVDGVRTPFLLSGTSYKDLMPHDLARAALTGLLHRTSVPKEVVDYIIFGTVIQEVKTSNVAREAALGAGFSDKTPAHTVTMACISANQAMTTGVGLIASGQCDVIVAGGVELMSDVPIRHSRKMRKLMLDLNKAKSMGQRLSLISKFRFNFLAPELPAVSEFSTSETMGHSADRLAAAFAVSRLEQDEYALRSHSLAKKAQDEGLLSDVVPFKVPGKDTVTKDNGIRPSSLEQMAKLKPAFIKPYGTVTAANSSFLTDGASAMLIMAEEKALAMGYKPKAYLRDFMYVSQDPKDQLLLGPTYATPKVLEKAGLTMNDIDAFEFHEAFSGQILANFKAMDSDWFAENYMGRKTKVGLPPLEKFNNWGGSLSLGHPFGATGCRLVMAAANRLRKEGGQYGLVAACAAGGQGHAMIVEAYPK
B2: FLAG-tagged EIF4G2 WT [human] / PRRC2C [human (endogenous in HEK293T)] (parent complex)
chain 1: B1 chain 1
chain 2: MSEKSGQSTKAKDGKKYATLSLFNTYKGKSLETQKTTARHGLQSLGKVGISRRMPPPANLPSLKAENKGNDPNVNIVPKDGTGWASKQEQHEEEKTPEVPPAQPKPGVAAPPEVAPAPKSWASNKQGGQGDGIQVNSQFQQEFPSLQAAGDQEKKEKETNDDNYGPGPSLRPPNVACWRDGGKAAGSPSSSDQDEKLPGQDESTAGTSEQNDILKVVEKRIACGPPQAKLNGQQAALASQYRAMMPPYMFQQYPRMTYPPLHGPMRFPPSLSETNKGLRGRGPPPSWASEPERPSILSASELKELDKFDNLDAEADEGWAGAQMEVDYTEQLNFSDDDEQGSNSPKENNSEDQGSKASENNENKKETDEVSNTKSSSQIPAQPSVAKVPYGKGPSFNQERGTSSHLPPPPKLLAQQHPPPDRQAVPGRPGPFPSKQQVADEDEIWKQRRRQQSEISAAVERARKRREEEERRMEEQRKAACAEKLKRLDEKLGILEKQPSPEEIREREREKEREREKELEKEQEQEREKEREKDRERQQEKEKELEKEQEKQREMEKERKQEKEKELERQKEKEKELQKMKEQEKECELEKEREKLEEKIEPREPNLEPMVEKQESENSCNKEEEPVFTRQDSNRSEKEATPVVHETEPESGSQPRPAVLSGYFKQFQKSLPPRFQRQQEQMKQQQWQQQQQQGVLPQTVPSQPSSSTVPPPPHRPLYQPMQPHPQHLASMGFDPRWLMMQSYMDPRMMSGRPAMDIPPIHPGMIPPKPLMRRDQMEGSPNSSESFEHIARSARDHAISLSEPRMLWGSDPYPHAEPQQATTPKATEEPEDVRSEAALDQEQITAAYSVEHNQLEAHPKADFIRESSEAQVQKFLSRSVEDVRPHHTDANNQSACFEAPDQKTLSAPQEERISAVESQPSRKRSVSHGSNHTQKPDEQRSEPSAGIPKVTSRCIDSKEPIERPEEKPKKEGFIRSSEGPKPEKVYKSKSETRWGPRPSSNRREEVNDRPVRRSGPIKKPVLRDMKEEREQRKEKEGEKAEKVTEKVVVKPEKTEKKDLPPPPPPPQPPAPIQPQSVPPPIQPEAEKFPSTETATLAQKPSQDTEKPLEPVSTVQVEPAVKTVNQQTMAAPVVKEEKQPEKVISKDLVIERPRPDSRPAVKKESTLPPRTYWKEARERDWFPDQGYRGRGRGEYYSRGRSYRGSYGGRGRGGRGHTRDYPQYRDNKPRAEHIPSGPLRQREESETRSESSDFEVVPKRRRQRGSETDTDSEIHESASDKDSLSKGKLPKREERPENKKPVKPHSSFKPDNHVRIDNRLLEKPYVRDDDKAKPGFLPKGEPTRRGRGGTFRRGGRDPGGRPSRPSTLRRPAYRDNQWNPRQSEVPKPEDGEPPRRHEQFIPIAADKRPPKFERKFDPARERPRRQRPTRPPRQDKPPRFRRLREREAASKSNEVVAVPTNGTVNNVAQEPVNTLGDISGNKTPDLSNQNSSDQANEEWETASESSDFNERRERDEKKNADLNAQTVVKVGENVLPPKREIAKRSFSSQRPVDRQNRRGNNGPPKSGRNFSGPRNERRSGPPSKSGKRGPFDDQPAGTTGVDLINGSSAHHQEGVPNGTGQKNSKDSTGKKREDPKPGPKKPKEKVDALSQFDLNNYASVVIIDDHPEVTVIEDPQSNLNDDGFTEVVSKKQQKRLQDEERRKKEEQVIQVWNKKNANEKGRSQTSKLPPRFAKKQATGIQQAQSSASVPPLASAPLPPSTSASVPASTSAPLPATLTPVPASTSAPVPASTLAPVLASTSAPVPASPLAPVSASASVSASVPASTSAAAITSSSAPASAPAPTPILASVSTPASVTILASASIPILASALASTSAPTPAPAASSPAAPVITAPTIPASAPTASVPLAPASASAPAPAPTPVSAPNPAPPAPAQTQAQTHKPVQNPLQTTSQSSKQPPPSIRLPSAQTPNGTDYVASGKSIQTPQSHGTLTAELWDNKVAPPAVLNDISKKLGPISPPQPPSVSAWNKPLTSFGSAPSSEGAKNGQESGLEIGTDTIQFGAPASNGNENEVVPVLSEKSADKIPEPKEQRQKQPRAGPIKAQKLPDLSPVENKEHKPGPIGKERSLKNRKVKDAQQVEPEGQEKPSPATVRSTDPVTTKETKAVSEMSTEIGTMISVSSAEYGTNAKESVTDYTTPSSSLPNTVATNNTKMEDTLVNNVPLPNTLPLPKRETIQQSSSLTSVPPTTFSLTFKMESARKAWENSPNVREKGSPVTSTAPPIATGVSSSASGPSTANYNSFSSASMPQIPVASVTPTASLSGAGTYTTSSLSTKSTTTSDPPNICKVKPQQLQTSSLPSASHFSQLSCMPSLIAQQQQNPQVYVSQSAAAQIPAFYMDTSHLFNTQHARLAPPSLAQQQGFQPGLSQPTSVQQIPIPIYAPLQGQHQAQLSLGAGPAVSQAQELFSSSLQPYRSQPAFMQSSLSQPSVVLSGTAIHNFPTVQHQELAKAQSGLAFQQTSNTQPIPILYEHQLGQASGLGGSQLIDTHLLQARANLTQASNLYSGQVQQPGQTNFYNTAQSPSALQQVTVPLPASQLSLPNFGSTGQPLIALPQTLQPPLQHTTPQAQAQSLSRPAQVSQPFRGLIPAGTQHSMIATTGKMSEMELKAFGSGIDIKPGTPPIAGRSTTPTSSPFRATSTSPNSQSSKMNSIVYQKQFQSAPATVRMTQPFPTQFAPQILSQPNLVPPLVRAPHTNTFPAPVQRPPMALASQMPPPLTTGLMSHARLPHVARGPCGSLSGVRGNQAQAALKAEQDMKAKQRAEVLQSTQRFFSEQQQSKQIGGGKAQKVDSDSSKPPETLTDPPGVCQEKVEEKPPPAPSIATKPVRTGPIKPQAIKTEETKS
B3: FLAG-tagged EIF4G2 WT [human] / EIF4A2 [human (endogenous in HEK293T)] (parent complex)
chain 1: B1 chain 1
chain 2: MSGGSADYNREHGGPEGMDPDGVIESNWNEIVDNFDDMNLKESLLRGIYAYGFEKPSAIQQRAIIPCIKGYDVIAQAQSGTGKTATFAISILQQLEIEFKETQALVLAPTRELAQQIQKVILALGDYMGATCHACIGGTNVRNEMQKLQAEAPHIVVGTPGRVFDMLNRRYLSPKWIKMFVLDEADEMLSRGFKDQIYEIFQKLNTSIQVVLLSATMPTDVLEVTKKFMRDPIRILVKKEELTLEGIKQFYINVEREEWKLDTLCDLYETLTITQAVIFLNTRRKVDWLTEKMHARDFTVSALHGDMDQKERDVIMREFRSGSSRVLITTDLLARGIDVQQVSLVINYDLPTNRENYIHRIGRGGRFGRKGVAINFVTEEDKRILRDIETFYNTTVEEMPMNVADLI

Variants of: B1
Assay: co-immunoprecipitation followed by mass spectrometry; FLAG-tagged EIF4G2 transfected into HEK293T cells; corrected for EIF4G2 levels in IP; read off a plot
chain 1 R178Q gave a ratio to parent of about 4.9.

Variants of: B2
Assay: as above
Work on chain 1 N785K yielded a ratio to parent of about 1.6.
chain 1 R165C showed a ratio to parent of about 2.4.

Variants of: B3
Assay: as above
For chain 1 R178Q, the ratio to parent was about 5.6.
